Data on 1 substance can be found in US20040137592.

Data set [1] deals with hUpf1/SMG-2 fusion protein (S1096) [GST: P08515].
The subject of data set [2] is GST fusion protein including S1078 (14mer peptide of hUpf1/SMG-2) [GST: P08515].
For data set [3], the target named is MBP fusion protein of the hUpf1/SMG-2 partial fragment at the N-terminal side (UniProt Q92900).
Data set [4] deals with fusion protein of the 14mer peptide (control) including S15 in the p53 protein and GST [GST: P08515].
The target in a further data set is HA tagged hUpf1/SMG-2 (UniProt Q92900).
Data set [5] concerns the target MBP fusion protein of the hUpf1/SMG-2 partial fragment at the C-terminal side (UniProt Q92900).

With “6H-hSMG-1 (fusion protein of human SMG-1 partial fragment 107-3657 and His tag)”, the “phosphorylation of substrate (in vitro kinase assay, 32P autoradiography)” value in data set [1] was “the GST fusion protein including S1078 or the GST fusion protein including S1096 ... was efficiently phosphorylated by 6H-hSMG-1”; in data set [2], “the GST fusion protein including S1078 or the GST fusion protein including S1096 ... was efficiently phosphorylated by 6H-hSMG-1”; in data set [3], “the fragments of hUpf1/SMG-2 at the C-terminal side and at the N-terminal side performed the role of good substrates for hSMG-1”; in data set [4] it was “the control construct encoding the SQ motif in the p53 protein was phosphorylated by hSMG-1”; in the data set with HA tagged hUpf1/SMG-2, “purified 6H-hSMG-1 phosphorylated HA-hUpf1/SMG-2”; in data set [5], “the fragments of hUpf1/SMG-2 at the C-terminal side and at the N-terminal side performed the role of good substrates for hSMG-1”.
